# Test results published in IntAct's records for PubMed 35512704.
# B1: Mothers against decapentaplegic homolog 4 (Homo sapiens), Q13485 (parent)
# chain: MDNMSITNTPTSNDACLSIVHSLMCHRQGGESETFAKRAIESLVKKLKEKKDELDSLITAITTNGAHPSKCVTIQRTLDGRLQVAGRKGFPHVIYARLWRWPDLHKNELKHVKYCQYAFDLKCDSVCVNPYHYERVVSPGIDLSGLTLQSNAPSSMMVKDEYVHDFEGQPSLSTEGHSIQTIQHPPSNRASTETYSTPALLAPSESNATSTANFPNIPVASTSQPASILGGSHSEGLLQIASGPQPGQQQNGFTGQPATYHHNSTTTWTGSRTAPYTPNLPHHQNGHLQHHPPMPPHPGHYWPVHNELAFQPPISNHPAPEYWCSIAYFEMDVQVGETFKVPSSCPIVTVDGYVDPSGGDRFCLGQLSNVHRTEAIERARLHIGKGVQLECKGEGDVWVRCLSDHAVFVQSYYLDREAGRAPGDAVHKIYPSAYIKVFDLRQCHRQMQQQAATAQAAAAAQAAAVAGNIPGPGSVGGIAPAISLSAAAGIGVDDLRRLCILRMSFVKGWGPDYPRQSIKETPCWIEIHLHRALQLLDEVLHTMPIADPQPLD
# partner: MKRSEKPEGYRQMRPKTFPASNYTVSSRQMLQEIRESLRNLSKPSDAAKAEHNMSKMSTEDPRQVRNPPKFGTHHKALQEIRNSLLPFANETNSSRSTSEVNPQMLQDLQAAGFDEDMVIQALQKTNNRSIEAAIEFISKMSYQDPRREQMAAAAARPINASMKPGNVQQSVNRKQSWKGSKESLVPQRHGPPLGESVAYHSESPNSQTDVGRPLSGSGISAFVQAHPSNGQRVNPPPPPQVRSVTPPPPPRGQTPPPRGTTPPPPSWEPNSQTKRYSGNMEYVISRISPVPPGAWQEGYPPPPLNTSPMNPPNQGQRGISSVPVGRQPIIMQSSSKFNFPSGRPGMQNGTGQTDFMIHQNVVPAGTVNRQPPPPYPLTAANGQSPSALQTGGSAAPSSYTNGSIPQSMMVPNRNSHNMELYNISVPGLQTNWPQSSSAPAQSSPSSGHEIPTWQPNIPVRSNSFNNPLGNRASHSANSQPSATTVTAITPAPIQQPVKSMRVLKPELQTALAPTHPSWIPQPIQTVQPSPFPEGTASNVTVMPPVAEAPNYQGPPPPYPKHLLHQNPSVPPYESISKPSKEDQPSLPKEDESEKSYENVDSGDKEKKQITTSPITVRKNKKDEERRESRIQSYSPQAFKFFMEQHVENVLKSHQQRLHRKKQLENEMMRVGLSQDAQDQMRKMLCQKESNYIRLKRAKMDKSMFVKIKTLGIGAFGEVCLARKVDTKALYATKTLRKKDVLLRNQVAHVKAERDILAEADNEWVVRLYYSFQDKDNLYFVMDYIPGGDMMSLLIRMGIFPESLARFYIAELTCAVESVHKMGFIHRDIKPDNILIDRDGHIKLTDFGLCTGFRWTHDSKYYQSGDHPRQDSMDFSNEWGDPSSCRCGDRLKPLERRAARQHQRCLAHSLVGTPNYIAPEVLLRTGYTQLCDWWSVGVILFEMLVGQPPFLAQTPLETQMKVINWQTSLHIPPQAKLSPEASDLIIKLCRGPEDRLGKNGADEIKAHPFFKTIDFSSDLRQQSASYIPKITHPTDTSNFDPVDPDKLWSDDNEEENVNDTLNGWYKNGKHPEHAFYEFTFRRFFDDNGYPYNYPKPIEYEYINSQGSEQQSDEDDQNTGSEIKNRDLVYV
# B2: Mothers against decapentaplegic homolog 4 (Homo sapiens), Q13485 (parent)
# chain: B1 chain
# partner: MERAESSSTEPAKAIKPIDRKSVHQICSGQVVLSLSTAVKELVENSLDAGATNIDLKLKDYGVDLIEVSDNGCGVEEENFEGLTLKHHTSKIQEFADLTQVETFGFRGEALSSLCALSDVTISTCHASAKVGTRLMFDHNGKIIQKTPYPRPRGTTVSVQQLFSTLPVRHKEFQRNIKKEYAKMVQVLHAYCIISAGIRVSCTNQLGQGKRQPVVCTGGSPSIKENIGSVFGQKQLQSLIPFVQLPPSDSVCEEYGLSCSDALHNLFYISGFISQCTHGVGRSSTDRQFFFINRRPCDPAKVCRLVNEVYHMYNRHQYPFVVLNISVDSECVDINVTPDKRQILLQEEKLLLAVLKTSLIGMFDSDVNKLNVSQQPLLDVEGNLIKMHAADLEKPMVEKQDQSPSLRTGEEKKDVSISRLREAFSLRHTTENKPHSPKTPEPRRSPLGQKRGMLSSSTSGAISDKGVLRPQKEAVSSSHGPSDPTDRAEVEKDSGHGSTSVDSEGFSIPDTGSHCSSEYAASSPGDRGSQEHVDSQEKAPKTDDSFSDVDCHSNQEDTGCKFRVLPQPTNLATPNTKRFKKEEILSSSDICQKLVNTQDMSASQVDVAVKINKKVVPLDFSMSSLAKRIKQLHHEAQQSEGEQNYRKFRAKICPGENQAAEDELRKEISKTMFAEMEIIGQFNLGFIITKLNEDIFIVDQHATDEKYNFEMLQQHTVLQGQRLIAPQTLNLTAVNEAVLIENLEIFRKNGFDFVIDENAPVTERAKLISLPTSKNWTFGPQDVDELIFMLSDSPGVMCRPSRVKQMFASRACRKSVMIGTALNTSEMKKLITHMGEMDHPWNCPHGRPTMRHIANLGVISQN
# B3: Mothers against decapentaplegic homolog 4 (Homo sapiens), Q13485 (parent)
# chain: B1 chain
# partner: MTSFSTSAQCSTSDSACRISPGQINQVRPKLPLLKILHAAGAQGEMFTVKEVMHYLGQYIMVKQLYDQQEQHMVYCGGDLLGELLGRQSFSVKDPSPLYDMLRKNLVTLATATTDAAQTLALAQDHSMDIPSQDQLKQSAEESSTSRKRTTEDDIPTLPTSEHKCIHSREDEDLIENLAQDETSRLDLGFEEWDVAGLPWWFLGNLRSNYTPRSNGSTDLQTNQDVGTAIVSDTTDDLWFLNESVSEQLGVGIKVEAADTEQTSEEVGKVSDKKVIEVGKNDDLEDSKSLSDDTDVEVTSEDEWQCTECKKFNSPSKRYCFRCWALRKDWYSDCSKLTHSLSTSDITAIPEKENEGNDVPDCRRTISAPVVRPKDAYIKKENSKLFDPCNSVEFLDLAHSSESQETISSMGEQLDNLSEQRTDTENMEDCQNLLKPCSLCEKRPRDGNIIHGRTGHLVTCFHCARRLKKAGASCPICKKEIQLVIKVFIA
# B4: Mothers against decapentaplegic homolog 4 (Homo sapiens), Q13485 (parent)
# chain: B1 chain
# partner: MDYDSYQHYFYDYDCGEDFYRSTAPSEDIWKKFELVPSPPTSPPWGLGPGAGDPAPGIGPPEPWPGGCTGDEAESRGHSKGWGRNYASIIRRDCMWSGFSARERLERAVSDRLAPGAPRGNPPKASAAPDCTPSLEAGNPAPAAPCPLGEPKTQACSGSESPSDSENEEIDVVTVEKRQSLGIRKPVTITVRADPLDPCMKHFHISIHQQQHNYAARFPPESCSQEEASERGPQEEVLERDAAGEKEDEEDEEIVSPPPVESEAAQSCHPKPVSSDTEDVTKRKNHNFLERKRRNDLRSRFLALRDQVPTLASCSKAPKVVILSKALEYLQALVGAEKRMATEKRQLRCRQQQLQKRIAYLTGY
# Variants of: B1
# Details: with lats1_human LATS1, O95835
row,effect of a mutation on the interaction,Variant
1,with no effect,R361C

# Variants of: B1
# Details: with lats1_human LATS1, O95835
# Remark: another data set of the same source
row,effect of a mutation on the interaction,Variant
1,with no effect,R361H

# Variants of: B2
# Details: with pms2_human PMS2, P54278
row,effect of a mutation on the interaction,Variant
1,with no effect,D351H

# Variants of: B2
# Details: with pms2_human PMS2, P54278
# Remark: another data set of the same source
row,effect of a mutation on the interaction,Variant
1,with no effect,R361C

# Variants of: B2
# Details: with pms2_human PMS2, P54278
# Remark: another data set of the same source
row,effect of a mutation on the interaction,Variant
1,with no effect,R361H

# Variants of: B2
# Details: with pms2_human PMS2, P54278
# Remark: another data set of the same source
row,effect of a mutation on the interaction,Variant
1,with no effect,G386D

# Variants of: B3
# Details: with mdm4_human MDM4, O15151
row,effect of a mutation on the interaction,Variant
1,with no effect,G386D

# Variants of: B3
# Details: with mdm4_human MDM4, O15151
# Remark: another data set of the same source
row,effect of a mutation on the interaction,Variant
1,with no effect,R361H

# Variants of: B3
# Details: with mdm4_human MDM4, O15151
# Remark: another data set of the same source
row,effect of a mutation on the interaction,Variant
1,with no effect,D351H

# Variants of: B4
# Details: with mycl_human MYCL
row,effect of a mutation on the interaction,Variant
1,with no effect,D351H

# Variants of: B4
# Details: with mycl_human MYCL
# Remark: another data set of the same source
row,effect of a mutation on the interaction,Variant
1,with no effect,R361C
